Biological target: ペプチド13(Aβのaa 13-21) (UniProt P05067)
Test: ELISA on biotinylated peptides (Mimotopes format)

- percent higher affinity than for whole Aβ1-42 protein: 36%
B1: ヒト化抗ヒトアミロイドβモノクローナル抗体hC2 (antibody, human IgG4 S228P, kappa, V domains shown)
VH: EVQLVESGGGLVQPGGSLRLSCAASGFTFSSYGMSWVRQAPGKGLELVASINSNGGSTYYPDSVKGRFTISRDNAKNSLYLQMNSLRAEDTAVYYCASGDYWGQGTTVTVSS
VL: DIVMTQSPLSLPVTPGEPASISCRSSQSLVYSNGDTYLHWYLQKPGQSPQLLIYKVSNRFSGVPDRFSGSGSGTDFTLKISRVEAEDVGVYYCSQSTHVPWTFGQGTKVEIKR

Source: JP2023110925A
